Measured values as given in article PMC9482650, “Quantitative fragmentomics allow affinity mapping of interactomes” (Nature Communications, 2022).

Tests used:
Experiment in all cases: holdup assay
Design in all cases: key: below the threshold = too weak to quantify, mostly under pKd 3.1 to 4
ARHGEF11, O15085 = biological target: T1, ARHGEF11, O15085
T1 sequence (O15085 42-136, limits assumed, looked up): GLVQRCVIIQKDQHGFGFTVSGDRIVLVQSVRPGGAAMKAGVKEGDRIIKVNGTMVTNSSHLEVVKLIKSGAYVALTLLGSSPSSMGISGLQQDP

APBA1_2, Q02410 = biological target: T2, APBA1_2, Q02410
T2 sequence (Q02410 742-832, limits assumed, looked up): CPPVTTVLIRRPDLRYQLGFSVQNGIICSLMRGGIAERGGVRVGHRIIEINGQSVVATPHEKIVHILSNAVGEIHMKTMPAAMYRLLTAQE

MAST1, Q9Y2H9 = biological target: MAST1, Q9Y2H9
Chain of MAST1, Q9Y2H9 (Q9Y2H9 962-1065): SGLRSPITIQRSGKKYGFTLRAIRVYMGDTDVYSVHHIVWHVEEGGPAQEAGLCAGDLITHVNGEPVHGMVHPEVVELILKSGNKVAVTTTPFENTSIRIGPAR

SNX27, Q96L92 = biological target: SNX27, Q96L92
NHERF4_4, Q86UT5 = biological target: NHERF4_4, Q86UT5
Chain of NHERF4_4, Q86UT5 (Q86UT5 464-550): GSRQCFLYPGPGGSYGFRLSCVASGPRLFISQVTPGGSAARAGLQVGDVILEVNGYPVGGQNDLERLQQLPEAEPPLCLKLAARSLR

LAP2, Q96RT1 = biological target: LAP2, Q96RT1
Chain of LAP2, Q96RT1 (Q96RT1 other isoform, or with tags, fused parts or gaps): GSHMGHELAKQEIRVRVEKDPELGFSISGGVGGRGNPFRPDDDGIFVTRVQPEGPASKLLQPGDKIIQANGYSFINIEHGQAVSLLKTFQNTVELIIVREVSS

MAGI3_2, Q5TCQ9 = biological target: MAGI3_2, Q5TCQ9
Chain of MAGI3_2, Q5TCQ9 (Q5TCQ9 398-503): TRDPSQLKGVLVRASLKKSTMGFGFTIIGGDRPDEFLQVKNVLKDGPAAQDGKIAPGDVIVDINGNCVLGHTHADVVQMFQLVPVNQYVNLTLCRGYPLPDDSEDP

FRMPD1, Q5SYB0 = biological target: T3, FRMPD1, Q5SYB0
T3 sequence (Q5SYB0 52-145, limits assumed, looked up): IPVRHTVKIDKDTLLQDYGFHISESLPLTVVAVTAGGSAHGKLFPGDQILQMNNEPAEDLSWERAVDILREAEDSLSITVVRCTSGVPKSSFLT

GRID2IP_2, A4D2P6 = biological target: GRID2IP_2, A4D2P6
Chain of GRID2IP_2, A4D2P6 (A4D2P6 272-370): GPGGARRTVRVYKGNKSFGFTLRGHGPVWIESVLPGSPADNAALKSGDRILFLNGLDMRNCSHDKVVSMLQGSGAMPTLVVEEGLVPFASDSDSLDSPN

NOS1, P29475 = biological target: NOS1, P29475
Chain of NOS1, P29475 (P29475 9-101): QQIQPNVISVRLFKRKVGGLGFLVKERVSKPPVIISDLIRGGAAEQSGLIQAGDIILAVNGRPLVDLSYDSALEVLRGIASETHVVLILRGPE

GORASP2, Q9H8Y8 = biological target: GORASP2, Q9H8Y8
ARHGAP21, Q5T5U3 = biological target: T4, ARHGAP21, Q5T5U3
T4 sequence (Q5T5U3 45-169, limits assumed, looked up): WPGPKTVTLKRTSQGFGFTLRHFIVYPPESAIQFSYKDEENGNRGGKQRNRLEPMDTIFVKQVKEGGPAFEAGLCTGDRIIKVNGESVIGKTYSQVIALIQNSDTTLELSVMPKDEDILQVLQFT

FRMPD3, Q5JV73 = biological target: FRMPD3, Q5JV73
Chain of FRMPD3, Q5JV73 (Q5JV73 12-100): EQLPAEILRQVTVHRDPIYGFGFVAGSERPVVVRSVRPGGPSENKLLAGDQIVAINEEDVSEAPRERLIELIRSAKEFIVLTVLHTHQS

GRIP2_3, Q9C0E4 = biological target: GRIP2_3, Q9C0E4
Chain of GRIP2_3, Q9C0E4 (Q9C0E4 238-339): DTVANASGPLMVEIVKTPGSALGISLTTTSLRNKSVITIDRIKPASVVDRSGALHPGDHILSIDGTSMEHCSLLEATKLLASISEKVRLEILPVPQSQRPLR

MAGI2_5, Q86UL8 = biological target: MAGI2_5, Q86UL8
Chain of MAGI2_5, Q86UL8 (Q86UL8 915-1017): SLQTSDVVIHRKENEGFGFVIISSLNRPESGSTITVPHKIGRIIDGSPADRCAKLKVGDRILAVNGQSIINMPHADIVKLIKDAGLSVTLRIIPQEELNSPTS

NHERF2_2, Q15599 = biological target: NHERF2_2, Q15599
Chain of NHERF2_2, Q15599 (Q15599 142-238): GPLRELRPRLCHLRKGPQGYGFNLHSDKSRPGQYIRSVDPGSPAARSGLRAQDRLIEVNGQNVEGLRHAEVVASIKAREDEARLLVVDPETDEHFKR

DLG4_3, P78352 = biological target: DLG4_3, P78352
Chain of DLG4_3, P78352 (P78352 306-403): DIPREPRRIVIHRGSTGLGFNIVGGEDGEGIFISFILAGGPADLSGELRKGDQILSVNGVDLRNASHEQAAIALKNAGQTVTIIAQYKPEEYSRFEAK

LIN7C, Q9NUP9 = biological target: T5, LIN7C, Q9NUP9
T5 sequence (Q9NUP9 88-185, limits assumed, looked up): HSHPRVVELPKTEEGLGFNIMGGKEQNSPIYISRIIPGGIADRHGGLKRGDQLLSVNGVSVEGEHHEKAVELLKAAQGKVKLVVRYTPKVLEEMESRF

TJP3_3, O95049 = biological target: T6, TJP3_3, O95049
T6 sequence (O95049 375-456, limits assumed, looked up): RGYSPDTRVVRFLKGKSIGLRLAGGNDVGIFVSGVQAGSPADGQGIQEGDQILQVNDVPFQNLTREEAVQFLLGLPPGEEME

Inadl_1, Q8NI35 = biological target: Inadl_1, Q8NI35
Chain of Inadl_1, Q8NI35 (Q8NI35 113-229): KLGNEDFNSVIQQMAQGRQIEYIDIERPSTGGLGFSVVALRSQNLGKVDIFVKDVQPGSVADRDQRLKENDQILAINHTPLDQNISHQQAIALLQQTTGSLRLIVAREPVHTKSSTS

SNTG2, Q9NY99 = biological target: T7, SNTG2, Q9NY99
T7 sequence (Q9NY99 68-166, limits assumed, looked up): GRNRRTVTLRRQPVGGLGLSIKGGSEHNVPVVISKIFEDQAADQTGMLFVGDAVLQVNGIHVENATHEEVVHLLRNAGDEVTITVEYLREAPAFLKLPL

SCRIB_3, Q14160 = biological target: SCRIB_3, Q14160
Chain of SCRIB_3, Q14160 (Q14160 999-1103): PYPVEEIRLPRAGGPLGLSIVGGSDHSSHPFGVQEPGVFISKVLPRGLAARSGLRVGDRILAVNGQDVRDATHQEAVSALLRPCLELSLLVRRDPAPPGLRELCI

PDZD2_2, O15018 = biological target: T8, PDZD2_2, O15018
T8 sequence (O15018 329-429, limits assumed, looked up): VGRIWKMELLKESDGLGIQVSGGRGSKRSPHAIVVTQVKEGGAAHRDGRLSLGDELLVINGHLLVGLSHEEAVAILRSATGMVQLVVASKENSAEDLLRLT

APBA1_1, Q02410 = biological target: T9, APBA1_1, Q02410
T9 sequence (Q02410 651-752, limits assumed, looked up): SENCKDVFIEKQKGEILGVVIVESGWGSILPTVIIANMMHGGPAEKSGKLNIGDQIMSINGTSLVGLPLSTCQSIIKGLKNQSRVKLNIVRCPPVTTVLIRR

TX1BP3, O14907 = biological target: T10, TX1BP3, O14907
T10 sequence (O14907 10-122, limits assumed, looked up): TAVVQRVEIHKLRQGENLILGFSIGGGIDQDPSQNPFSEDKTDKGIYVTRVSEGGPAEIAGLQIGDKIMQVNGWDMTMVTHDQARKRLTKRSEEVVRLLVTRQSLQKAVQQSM

DLG2_3, Q15700 = biological target: DLG2_3, Q15700
DFNB31_3, Q9P202 = biological target: T11, DFNB31_3, Q9P202
T11 sequence (Q9P202 811-907, limits assumed, looked up): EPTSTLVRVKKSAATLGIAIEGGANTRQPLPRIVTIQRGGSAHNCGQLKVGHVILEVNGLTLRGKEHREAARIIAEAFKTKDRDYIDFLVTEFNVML

[1] = plain residues with an end cap or a label only (N-terminal biotin on a linker: ttds)
[2] = plain residues with an end cap or a label only (N-terminal biotin on a linker: ado-ado)

B1: HPV82-E6, Q9IR59 (peptide)
chain: PPRQRSETQV
pKd (ARHGEF11, O15085; [1]): 3.74 | pKd (APBA1_2, Q02410; [1]): below the threshold | pKd (MAST1, Q9Y2H9; [1]): 4.41 | pKd (SNX27, Q96L92; [1]): 4.67 | pKd (NHERF4_4, Q86UT5; [1]): below the threshold | pKd (LAP2, Q96RT1; [1]): 3.45 | pKd (MAGI3_2, Q5TCQ9; [1]): 5.68 | pKd (FRMPD1, Q5SYB0; [1]): below the threshold | pKd (GRID2IP_2, A4D2P6; [1]): below the threshold | pKd (NOS1, P29475; [1]): 3.88 | pKd (GORASP2, Q9H8Y8; [1]): 4.12 | pKd (ARHGAP21, Q5T5U3; [1]): below the threshold | pKd (FRMPD3, Q5JV73; [1]): below the threshold | pKd (GRIP2_3, Q9C0E4; [1]): below the threshold | pKd (MAGI2_5, Q86UL8; [1]): 4 | pKd (NHERF2_2, Q15599; [1]): below the threshold | pKd (DLG4_3, P78352; [1]): 4.43 | pKd (LIN7C, Q9NUP9; [1]): 3.64 | pKd (TJP3_3, O95049; [1]): below the threshold | pKd (Inadl_1, Q8NI35; [1]): below the threshold | pKd (SNTG2, Q9NY99; [1]): 4 | pKd (SCRIB_3, Q14160; [1]): 4.05 | pKd (PDZD2_2, O15018; [1]): below the threshold | pKd (APBA1_1, Q02410; [1]): below the threshold | pKd (TX1BP3, O14907; [1]): 4.14 | pKd (DLG2_3, Q15700; [1]): 4.9 | pKd (DFNB31_3, Q9P202; [1]): below the threshold

B2: DCHS2, Q6V1P9 (peptide)
chain: ELKAEDEVQI
pKd (ARHGEF11, O15085; [2]): below the threshold | pKd (APBA1_2, Q02410; [2]): below the threshold | pKd (MAST1, Q9Y2H9; [2]): below the threshold | pKd (SNX27, Q96L92; [2]): below the threshold | pKd (NHERF4_4, Q86UT5; [2]): below the threshold | pKd (LAP2, Q96RT1; [2]): below the threshold | pKd (MAGI3_2, Q5TCQ9; [2]): below the threshold | pKd (FRMPD1, Q5SYB0; [2]): below the threshold | pKd (GRID2IP_2, A4D2P6; [2]): below the threshold | pKd (NOS1, P29475; [2]): 3.74 | pKd (GORASP2, Q9H8Y8; [2]): below the threshold | pKd (ARHGAP21, Q5T5U3; [2]): 3.92 | pKd (FRMPD3, Q5JV73; [2]): below the threshold | pKd (GRIP2_3, Q9C0E4; [2]): below the threshold | pKd (MAGI2_5, Q86UL8; [2]): below the threshold | pKd (NHERF2_2, Q15599; [2]): below the threshold | pKd (DLG4_3, P78352; [2]): below the threshold | pKd (LIN7C, Q9NUP9; [2]): below the threshold | pKd (TJP3_3, O95049; [2]): below the threshold | pKd (Inadl_1, Q8NI35; [2]): below the threshold | pKd (SNTG2, Q9NY99; [2]): below the threshold | pKd (SCRIB_3, Q14160; [2]): below the threshold | pKd (PDZD2_2, O15018; [2]): below the threshold | pKd (APBA1_1, Q02410; [2]): below the threshold | pKd (TX1BP3, O14907; [2]): below the threshold | pKd (DLG2_3, Q15700; [2]): below the threshold | pKd (DFNB31_3, Q9P202; [2]): below the threshold
